Consider two molecules from patent US20180066068A9, “ANTI-PSYK ANTIBODY MOLECULES AND USE OF SAME FOR SYK-TARGETED THERAPY” (Millennium Pharmaceuticals, Inc., priority 2014, published 2018).

Assay [1] has as its system pSYK, pBLNK, cleaved caspase 3 in PHTX-95L primary DLBCL xenografts. Nature of the assay: Pharmacodynamics by IHC in PHTX-95L xenografts. The assay is classed as in vivo, NOD SCID mice.
In assay [2] the test system is pSYK in TMD8 lymphoma cell line xenograft. Nature of the assay: Pharmacodynamics by IHC in TMD8 xenografts. The assay is classed as in vivo, mice. The conditions noted are these: single oral dose 120 mg/kg, two hours after dosing; MIL81-1-8 hybridoma and molecular clone antibodies.
For assay [3], the system named is DLBCL cell lines. Nature of the assay: Inhibition of cellular proliferation. The assay is classed as cell-based. The conditions noted are these: expanded set of relevant models; 72 hours of treatment, DLBCL cell lines (FIG. 21).
Assay [4] has as its target T1, SYK in lysates of WSU-DLCL2 cells (Homo sapiens, UniProt P43405).
T1 construct: endogenous in cells; host or cells: WSU-DLCL2 cells, unstimulated or stimulated (BCR crosslinking or pervanadate)
Nature of the assay: Western blot of cell lysates, WSU-DLCL2. The format is binding. As to conditions: lysate of stimulated cells. The protocol:
Additional cell culture material was used to screen antibodies by utilizing WSU-DLCL2 (human diffuse large B-cell lymphoma) cells that were stimulated through crosslinking the B-cell receptor (AffiniPure F(ab′)^2 fragment of goat anti-human Ig, cat #109-006-127, JacksonImmuno Research Laboratories, Inc., West Grove, Pa.) or with pervanadate treatment (25 μL into 1 mL of cells of the following; 50 μL Na3VO4, 5.5 μL 9.1M H2O2(31%), 944.5 μl H2O) over a 60 min time course. At each time point cells were collected and lysed in MPER (Thermo: 7850) containing both a protease inhibitor cocktail I (Calbiochem:539131-10VL) and 1× HALT a generic protein phosphatase inhibitor cocktail (Thermo: 78428). Also LY10 (OCI-LY10) cells were used as lysates without or with stimulation with cross-linking or pervanadate as described above. Ly10 cells have weak SYK expression compared to WSUDLCL2 cells (FIG. 1). […] (BLNK was detected in every sample by CST 3575 and SC15345 antibodies, with the pBLNK detection paralleling the pSYK detection in the crosslinked and pervanadate-treated cells.) One conclusion of this study extended the nucleic acid results, and found weak pSYK signal in the Ly10 crosslinked sample. […]
(In general: In western blotting, separated proteins are transferred to a membrane and probed.)

The target of assay [5] is T2, pSYK in human DLBCL biopsies (Homo sapiens, UniProt P43405).
T2 construct: from tissue; host or cells: FFPE human DLBCL biopsies; one normal lymph node
Nature of the assay: IHC of human DLBCL biopsies, AMP HQ versus Leica IHC. The format is binding. How it is done:
Antibodies were incubated with OmniMap goat anti-rabbit HRP secondary antibody (Ventana Medical Systems) for 16 minutes. A Discovery AMP TSA HQ kit (Ventana Medical Systems) was applied for 16 minutes followed by 16 minute incubation with the Discovery anti-HQ HRP (Ventana Medical Systems) antibody. The staining was then developed with the 3,3′-diaminobexidine (DAB) substrate map system. Slides were counterstained with hematoxylin and imaged using the Aperio whole slide scanning system (XT). A comparative staining was obtained with the MIL81-1-8 3H3/3L2 antibody using an automated protocol on a Leica automated stainer. pSYK protein levels in Formalin-Fixed, Paraffin-Embedded tissues were incubated with MIL81-1-8 3H3/3L2 antibody ([…]) for 30 minutes on the Leica Microsystems (Wetzlar, Germany) BOND RX automated stainer. Antibodies were incubated with a rabbit anti-goat HRP secondary antibody (Leica Laboratories) and developed with the 3,3′-diaminobexidine (DAB) substrate map system. Slides were counterstained with hematoxylin and imaged using the Aperio whole slide scanning system (XT). The staining of the AMP HQ and the Leica IHC were compared to determine staining specificity. […] Each was scored either positive (membrane stain was found) or negative (no membrane staining was found). […]

Assay [6] concerns the target T3, GST-pSYK (IVK) (Homo sapiens, UniProt P43405).
T3 construct: made in house; host or cells: baculovirus-infected Sf9 cells
Nature of the assay: Western blot on autophosphorylated GST-pSYK (IVK). The format is binding. As to conditions: GST-tagged recombinant SYK, compared with untreated. How it is done:
GST-hSYK was expressed in baculovirus-infected Sf9 cells and affinity-purified by glutathione Sepharose affinity resin. For in vitro kinase (IVK) pSYK, isolated GST-SYK was incubated in 1 mM ATP, 1 mM MgCl2 for 1 hr at room temperature to allow autophosphorylation to occur. The reaction was stopped by the addition of 5 mM EDTA and a small aliquot removed for treatment with 0.1% SDS, stored […] and used for AlphaScreen analysis or stored at −80° without further purification. This sample was later used at Epitomics for screening assays of hybridoma. An aliquot of the sample was analyzed by SDS-PAGE for Western blotting using anti-SYK (Cell Signaling Technologies #2712) and Epitomics 2175-1. The majority of the recombinant material was confirmed to be phosphorylated at Y525/526.
(§1) Western blots were prepared from SDS-PAGE gels of GST-pSYK (IVK), and phosphatase-treated GST-pSYK. Each hybridoma multiclone supernatant was tested for binding to the blots. […] By this method, multiclone hybridoma supernatants with good binding of phosphorylated relative to dephosphorylated pSYK were 1, 2, 19, 24, 39, 49, 52, 53, 55, 59, 63, 70, 81, 84, 85, 87, 98 and 99.

Assay [7] concerns the target T4, phosphatase-treated GST-pSYK (de-pSYK) (Homo sapiens, UniProt P43405).
T4 construct: made in house; host or cells: baculovirus-infected Sf9 cells
The assay is described as follows: Western blot on phosphatase-treated GST-pSYK. The conditions noted are these: GST-tagged recombinant SYK. The format is binding. How it is done: Some of the autophosphorylated GST-pSYK was treated with T-cell protein phosphatase (TC-PTP, New England Biolabs), a tyrosine-specific phosphatase, for confirming specificity of antibodies to pSYK.
as §1

Assay [8] concerns the target T5, pSYK in DLBCL patient samples and normal lymph node (Homo sapiens, UniProt P43405).
T5 construct: from tissue; host or cells: FFPE human DLBCL biopsies; one normal lymph node
The assay is described as follows: IHC of molecular clone versus hybridoma antibody on human biopsies. The format is binding. The protocol: The molecular clone antibody also was assessed by IHC. The immunohistochemical staining of antibody purified from MIL81-1-8 hybridoma supernatant as described above was compared to staining by MIL81-1-8 3H3/3L2 clone antibody purified from culture supernatant of transiently co-transfected HEK293 cells (also one-step purification-protein A chromatography followed by buffer exchange).
Both the molecular clone and the hybridoma antibodies stained HBL1 to a moderate extent and strongly stained PHTX95L untreated samples. […] The molecular clone antibody was compared to the hybridoma antibody for staining biopsies of human tissues. There were three DLBCL patient samples and one normal lymph node sample (non-tumorigenic) from a patient. […] If nuclear staining would be considered off-target and lead to a determination of absence of pSYK, then a version of MIL81-1-8, with less nuclear relative to cytoplasmic or membranous staining could lead to fewer false negative results.

[9] abbreviates: single dose 120 mg/kg, IHC of tumors harvested over time.

Usually EC50 stands for the concentration that produces a half-maximal response. Low values mean an effect from little substance, high ones a need for much substance. `Cn1cc(-c2nc(N[C@@H]3CCCC[C@@H]3N)c(F)c3c2C(=O)NC3)cn1` [Compound A, 6-((1R,2S)-2-Aminocyclohexylamino)-7-fluoro-4-(1-methyl-1H-pyrazol-4-yl)-1H-pyrrolo[3,4-c]pyridin-3(2H)-one]: in assay [1] (setting [9]), the “cleaved caspase 3 expression” value is “increase in expression”, the “pBLNK (pBLNK65) expression time course” value is on record as “Time dependent inhibition” and the “pSYK (pSYK525) expression time course” value is “Time dependent inhibition”. Besides, the “pSYK stain in PHTX95L xenograft after treatment” value in assay [1] (single oral dose 120 mg/kg, two hours after dosing, MIL81-1-8 hybridoma and molecular clone antibodies) was “diminished”. Further, the “pSYK stain in TMD8 xenograft after treatment” value in assay [2] is listed as “diminished”. This molecule also registered an EC50 in assay [3] of 25 to 4000 nM.

B1: MIL81-1-8 3H3/3L2: recombinant molecular clone of MIL81-1-8; heavy chain SEQ ID NO:4, light chain SEQ ID NO:6, from transfected HEK293 cells (antibody)
heavy: METGLRWLLLVAVLKGVQCQSVEESGGRLVTPGTPLTLTCTVSGIDLNSYIMSWVRQAPGKGLEWIGIISRRGNTYYASWPKGRFTISKTSTTVDLKITSPTTEDTATYFCARAYLYTSGTMSVWGPGTLVTVSSGQPKAPSVFPLAPCCGDTPSSTVTLGCLVKGYLPEPVTVTWNSGTLTNGVRTFPSVRQSSGLYSLSSVVSVTSSSQPVTCNVAHPATNTKVDKTVAPSTCSKPTCPPPELLGGPSVFIFPPKPKDTLMISRTPEVTCVVVDVSQDDPEVQFTWYINNEQVRTARPPLREQQFNSTIRVVSTLPIAHQDWLRGKEFKCKVHNKALPAPIEKTISKARGQPLEPKVYTMGPPREELSSRSVSLTCMINGFYPSDISVEWEKNGKAEDNYKTTPAVLDSDGSYFLYSKLSVPTSEWQRGDVFTCSVMHEALHNHYTQKSISRSPGK
light: MDTRAPTQLLGLLLLWLPGARCADIVMTQTPSPVEAAVGGTVTIKCQASESISSYLSWYQQKPGQPPKLLIYRASTLVSGVPSRFKGSGSGTDFTLTISDLECADAATYYCQHTYFGSDYVGGFGGGTEVVVKGDPVAPTVLIFPPAADQVATGTVTIVCVANKYFPDVTVTWEVDGTTQTTGIENSKTPQNSADCTYNLSSTLTLTSTQYNSHKEYTCKVTQGTTSVVQSFNRGDC
As to B1, in assay [4], the “Binding to SYK on western blot, stimulated WSU-DLCL2 cells” value is reported as “stained the band”. For the same molecule, the “Samples deemed positive (membrane stain) out of 82” value in assay [5] (AMP HQ amplified IHC, 1:10,000 dilution) is listed as 34; in assay [5] (Leica IHC, 1:3200 dilution) it was 24. Moreover, in assay [6], the “Western blot staining of IVK-treated recombinant SYK” value is “stained the IVK-treated SYK band more intensely than the untreated SYK band”. Further, the “Western blot staining of phosphatase-treated recombinant SYK” value in assay [7] was “slightly stained”. Besides, the “Overall IHC comparison with hybridoma antibody” value in assay [8] (cell pellets, xenografts and human biopsies) was “slightly better than the hybridoma antibody”. For the same molecule, the “Nuclear staining intensity compared to hybridoma antibody” value in assay [8] (human biopsies) is given as “remarkably reduced”.
